According to paper PMC7806720, “Restoration of the reduced CLSP activity alleviates memory impairment in Alzheimer disease” (Translational Psychiatry, 2021):

Tests used:
[1] = molecular target: recombinant apolipoprotein E4 (UniProt P02649); experiment: plate binding assay with HiBiT luminescence (Nano-Glo HiBiT Extracellular Detection System); ApoE4 or adiponectin coated on 96-well plates (20 pM in 50 mM carbonate buffer pH 9.6, overnight 4 °C), blocked with 1% skim milk in PBS; CLSP-HiBiT in PBS added, overnight 4 °C; washed with PBS with 0.1% NP-40; in duplicate
[2] = molecular target: T1, recombinant adiponectin (UniProt Q15848 19-244); experiment: as above; settings: both partners purified
T1 construct: adiponectin; also called ADN; source: recombinant
T1 sequence (looked up): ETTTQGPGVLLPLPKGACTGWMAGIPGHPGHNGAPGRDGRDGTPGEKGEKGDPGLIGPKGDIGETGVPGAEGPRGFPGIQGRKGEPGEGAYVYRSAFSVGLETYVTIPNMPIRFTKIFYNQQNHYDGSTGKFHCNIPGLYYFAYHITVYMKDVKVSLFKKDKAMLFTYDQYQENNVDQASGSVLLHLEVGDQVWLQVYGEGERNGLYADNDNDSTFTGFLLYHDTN

- Kd [1]: 8.8 pM
- Kd [2]: 7.8 pM
B1: CLSP-HiBiT (natural protein, human, UniProt Q9NZT1 1-146, looked up)
chain: MAGELTPEEEAQYKKAFSAVDTDGNGTINAQELGAALKATGKNLSEAQLRKLISEVDSDGDGEISFQEFLTAAKKARAGLEDLQVAFRAFDQDGDGHITVDELRRAMAGLGQPLPQEELDAMIREADVDQDGRVNYEEFARMLAQE
notes: calmodulin-like skin protein (CLSP); also called recombinant CLSP-HiBiT; source: recombinant
